From the supplement of paper PMC6757056
± gives the standard deviation of the averaged measurements.

B1: library; a variant is named by its letters at N, in order (parent)
chain: GCUGUCACCGAGAAACUGUGAAGUAUAUCUUAAACCUGGGCACUUAAAAGAUAUAUGGAGUUAGUAGUGCAACCUGCUCGGUCUGAUGAGUCCNNNNNNGGACGAAACAGC

Assays:
[1] = variants of: B1; assay: normalized RNA/DNA level without ligand (relative to sTRSVctl = 100) (log10 (% of sTRSVctl)); HEK293T; ligand: cyclic di-GMP (c-di-GMP-II aptamer); higher = less ribozyme self-cleavage, higher mRNA level; details: reporter: mCherry (pCS4076), ligand present: no
Procedure, shortened: (§1)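 HEK293T cells were transfected with library plasmids carrying ribozyme switches linked to an mCherry reporter, or an eGFP reporter in some ligand experiments, at 4 µg per well of a 6-well plate, with any ligand added 1 h beforehand. After 72 h, total RNA was extracted with EDTA, reverse-transcribed, amplified, barcoded and sequenced. RNA level was defined as RNA reads over DNA reads, normalized to a spiked-in non-cleaving sequence or to the top-ranked sequences. That value was multiplied by 100 and converted to log10, the top set was 25 sequences, and only sequences with ≥100 DNA reads were retained.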

[2] = variants of: B1; assay: normalized RNA/DNA level with ligand (relative to sTRSVctl = 100) (log10 (% of sTRSVctl)); HEK293T; ligand: cyclic di-GMP (c-di-GMP-II aptamer); ligand concentration (+) RNA-Seq: 1 mM; higher = less ribozyme self-cleavage, higher mRNA level; details: reporter: mCherry (pCS4076), ligand present: yes
Procedure, shortened: as §1

Row | Variant | normalized RNA/DNA level without ligand (log10) [1] | normalized RNA/DNA level with ligand (log10) [2]
1 | CUCGAC | 1.714 ± 0.0032 | 1.85 ± 0.069
2 | GUGAAC | 1.5 ± 0.08 | 1.69 ± 0.13
3 | UUCGAG | 1.6344 ± 1.3e-05 | 1.81 ± 0.14
4 | UUCGAC | 1.659 ± 0.0063 | 1.79 ± 0.12
5 | UUCGAU | 1.69 ± 0.066 | 1.85 ± 0.16
6 | UUCGAA | 1.6 ± 0.041 | 1.82 ± 0.043
7 | GUCCGA | 1.63 ± 0.024 | 1.78 ± 0.14
8 | GUCCGC | 1.84 ± 0.03 | 1.93 ± 0.071
9 | GUCCGG | 1.84 ± 0.12 | 1.96 ± 0.11
10 | GUCCGU | 1.65 ± 0.038 | 1.82 ± 0.069
11 | GUCCCU | 1.77 ± 0.024 | 1.92 ± 0.091
12 | GUCCCA | 1.772 ± 0.0084 | 1.87 ± 0.075
13 | GUCCCC | 1.76 ± 0.029 | 1.86 ± 0.061
14 | GUCCCG | 1.76 ± 0.058 | 1.85 ± 0.21
15 | UUCCAU | 1.73 ± 0.028 | 1.85 ± 0.15
16 | UUCCAA | 1.7 ± 0.037 | 1.84 ± 0.13
17 | UUCCAC | 1.7863 ± 0.00044 | 1.88 ± 0.13
18 | UUCCAG | 1.76 ± 0.022 | 1.89 ± 0.093
19 | AUCCGA | 1.56 ± 0.017 | 1.73 ± 0.15
20 | AUCCGC | 1.76 ± 0.032 | 1.88 ± 0.13

Row | Variant | normalized RNA/DNA level without ligand (log10) [1] | normalized RNA/DNA level with ligand (log10) [2]
21 | AUCCGU | 1.74 ± 0.041 | 1.89 ± 0.12
22 | AUCCGG | 1.85 ± 0.024 | 1.93 ± 0.023
23 | CUCGCG | 1.857 ± 0.014 | 1.91 ± 0.039
24 | CUCGCA | 1.66 ± 0.047 | 1.81 ± 0.14
25 | CUCGCC | 1.784 ± 0.0038 | 1.86 ± 0.095
26 | AUGAAU | 1.53 ± 0.055 | 1.72 ± 0.024
27 | AUGAAG | 1.52 ± 0.13 | 1.67 ± 0.064
28 | CUCCUC | 1.76 ± 0.026 | 1.87 ± 0.11
29 | CUCCUG | 1.78 ± 0.065 | 1.85 ± 0.13
30 | CUCCUU | 1.61 ± 0.071 | 1.79 ± 0.051
31 | CUCCCU | 1.661 ± 0.0018 | 1.76 ± 0.05
32 | CUCCCA | 1.718 ± 0.0069 | 1.87 ± 0.052
33 | CUCCCG | 1.79 ± 0.088 | 1.91 ± 0.14
34 | CUCCCC | 1.82 ± 0.032 | 1.9 ± 0.089
35 | UUCUAC | 1.75 ± 0.025 | 1.9 ± 0.035
36 | UUCUAG | 1.75 ± 0.047 | 1.84 ± 0.15
37 | UUCUAU | 1.721 ± 0.0074 | 1.83 ± 0.11
38 | UUCUAA | 1.66 ± 0.025 | 1.8 ± 0.11
39 | GUGACU | 1.671 ± 0.002 | 1.8 ± 0.089
40 | GUGACG | 1.66 ± 0.021 | 1.77 ± 0.11

Row | Variant | normalized RNA/DNA level without ligand (log10) [1] | normalized RNA/DNA level with ligand (log10) [2]
41 | GUGACA | 1.665 ± 0.0036 | 1.79 ± 0.069
42 | GUGACC | 1.67 ± 0.065 | 1.824 ± 0.015
43 | UUCGUU | 1.736 ± 0.0061 | 1.87 ± 0.14
44 | UUCGUA | 1.64 ± 0.021 | 1.82 ± 0.11
45 | UUCGUC | 1.76 ± 0.037 | 1.88 ± 0.058
46 | AUCGCC | 1.78 ± 0.013 | 1.88 ± 0.15
47 | AUCGCA | 1.65 ± 0.018 | 1.77 ± 0.12
48 | AUCGCG | 1.75 ± 0.035 | 1.84 ± 0.054
49 | AUCGCU | 1.7 ± 0.023 | 1.81 ± 0.089
50 | CUCGGU | 1.79 ± 0.021 | 1.89 ± 0.16
51 | CUCGGG | 1.76 ± 0.031 | 1.88 ± 0.085
52 | CUCGGC | 1.797 ± 0.0073 | 1.9 ± 0.088
53 | UUCUCC | 1.83 ± 0.031 | 1.9 ± 0.1
54 | UUCUCU | 1.8 ± 0.039 | 1.91 ± 0.11
55 | UUCUCA | 1.78 ± 0.073 | 1.9 ± 0.087
56 | UUCUCG | 1.8 ± 0.065 | 1.91 ± 0.15
57 | UUGAAC | 1.691 ± 0.0046 | 1.82 ± 0.11
58 | UUGAAU | 1.661 ± 0.0028 | 1.83 ± 0.095
